The text below walks through data of patent US20190248900A1 (Y BIOLOGICS, published 2019).

One may read the Kd as the concentration at which binding is half-saturated. For orientation: koff means a measure of how fast the partners let go of each other. By kon is commonly meant a measure of how fast the partners come together. For orientation: IC50 means the concentration that gives 50% inhibition. As a reminder, the EC50 is the midpoint of the concentration-response curve.

In assay [1] the target is T1, PD1-hFc (human, UniProt Q15116 25-170).
T1 construct: extracellular domain; also called PD1-hFc protein; Human PD-1-Fc (S1420, Y-Biologics)
Description: SPR ProteOn XPR36, PD1-hFc immobilised, antibody as analyte; parent antibody, Example 4 text (FIG. 9), not the Table 12 run. Here is the method: A ProteOn XPR36 (BioRad) instrument was used. The GLC sensor chip (BioRad) was mounted on the instrument and washed with PBST buffer, and the carboxymethyldextran surface was activated with an EDC/sulfo-NHS mixed solution. PD1-hFc dissolved at a concentration of 5 ug/ml in a 10 mM sodium acetate buffer solution (pH 5.0) was injected and immobilized on the GLC sensor chip.
In order to deactivate the activated carboxyl groups that remain unreacted with the PD1 protein, 1 M ethanolamine was flowed and 10 mM glycine (pH 2.0) was injected in order to wash proteins that remain unbound to the sensor chip.
The equilibrium dissociation constant (KD) was calculated by plotting and fitting the sensogram data in the equilibrium state depending on concentration.

A further assay concerns the target T2, monkey PD1 protein (monkey).
T2 construct: also called monkey PD-1 proteins
Description: SPR ProteOn XPR36; format for monkey PD1 not described.

Assay [2] deals with T3, PD-1-His (S1352, Y-Biologics) (UniProt Q15116 25-170, limits assumed).
T3 construct: not shown: His tag
Description: competition ELISA: PD-L2-Fc coated, PD-1-His as binder, antibody as competitor. Here is the method: (§1) Human PD-1-Fc (S1420, Y-Biologics) or PD-L2-Fc (#10292-H02H, Sino) was added to wells of a 96-well immuno microplate (#439454, Thermo) and then washed three times with PBS containing 0.05% tween-20 (#P9416, Sigma-Aldrich), followed by allowing to stand in a cleaning solution containing 4% skim milk (#232120, Becton, Dickinson and Company) at room temperature for 1 hour to block non-specific binding. […] After the resulting product was subjected to the same washing method as above, the anti-Biotin-His antibody (#MA1-21315-BTIN, Thermo) diluted to 1:2000 was added to the well of the microplate, allowed to react at room temperature for 1 hour, streptavidin poly-HRP antibody (#21140, Pierce) diluted to 1:5000 was added to the well of microplate, reacted at room temperature for 1 hour and then washed in the same manner. 100 ul of a TMB substrate solution (#T0440, Sigma-Aldrich) was added to the reaction product, light was shielded, and the reaction product was allowed to stand at room temperature for 3 minutes, 50 μL of 2.5 M sulfuric acid (#S1478, Samchun) was added to stop the reaction, and absorbance was measured at 450 nm using a spectrophotometer (*GM3000, Glomax® Discover System Promega).
In general terms: ELISA stands for enzyme-linked immunosorbent assay.

Assay [3] addresses T1, PD1-hFc. Description: competition ELISA: PD1-Fc coated, PDL1-His as binder, antibody as competitor. As for the experimental part:
as §1

Assay [4] concerns the target T4, human PD-1 (NM_005018.2) over-expressed on cells (human, UniProt Q15116 25-288).
T4 construct: whole, on cells; also called human PD-1 over-expressed on the cell surface; Jurkat cell line highly expressing human PD-1
Description: flow cytometry on cells over-expressing human PD-1, fit of Geometric Mean. A general note: In flow cytometry, cells or beads pass a laser one at a time.

The next assay concerns the target T5, rat PD1 protein (rat, UniProt D3ZIN8 25-169).
T5 construct: also called rat PD-1 proteins
T5 sequence: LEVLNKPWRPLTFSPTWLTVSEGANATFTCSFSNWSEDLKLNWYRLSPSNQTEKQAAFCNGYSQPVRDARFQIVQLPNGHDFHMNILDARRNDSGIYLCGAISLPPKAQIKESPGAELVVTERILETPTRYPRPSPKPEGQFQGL
Description: SPR ProteOn XPR36; format for rat PD1 not described.

Assay [5] deals with T4, human PD-1 (NM_005018.2) over-expressed …. Description: cell-based or functional assay.
Assay [6] addresses T1, PD1-hFc. Description: ProteOn XPR36; legend names PD1-hFc, the sheet names the immobilised protein PD-1 C-his.

B1: PD1-49A2 (antibody, V domains shown)
VH: QVQLVESGGGVVQPGRSLRLSCAASGFTFSSYAMHWVRQAPGKGLEWVAVISYDGSNKYYADSVKGRFTISRDNPKNTLYLQMNSLRAEDTAVYYCTTTTFDSWGRGTLVTVSS
VL: DIVMTQSPLSLPVTPGEPASISCRSSQSLFDSDDGNTYLDWYLQKPGQSPQLLIYTLSHRASGVPDRFSGSGSGTDFTLKISRVEAEDVGIYYCLQRMGFPYTFGQGTKVEIK
notes: scFv-phage in the screening ELISA; whole IgG in the other assays; also called Parent 49A2
As to B1, the values for the dissociation constant (Kd) (in the assay with PD1-hFc [1]; with monkey PD1 protein; in assay [4]) were 0.019 nM, 0.001 nM and 38.2 nM, respectively. In addition, the koff with monkey PD1 protein is 1e-07 s⁻¹. The molecule further returned a kon in the assay with monkey PD1 protein of 168000 M⁻¹ s⁻¹. The half-maximal inhibitory concentration (IC50) in assay [2] amounted to 59.7 nM; in the assay with PD1-hFc [3], 3.92 nM. Further, the Bmax in assay [4] was 3000.

B2: PD1-45D6 (antibody, V domains shown)
VH: QVQLVESGGGVVQPGRSLRLSCAASGFTFSSYAMHWVRQVPGKGLEWVAVISYDGNDKYYADSVKGRFTISRDNSKNTLYLQMNSLRAEDTAVYYCVPTTFEYWGQGSQVTVSS
VL: DIVMTQTPLSLPVTPGEAASISCRSSQSLLDSDDGKTYLDWYLQKPGQSPQLLIYTLSYRASGVPDRFSGSGSGTEFNLRISRVEAEDVGIYYCMQRVEFPFTFGQGTKLDIK
notes: scFv-phage in the screening ELISA; whole IgG in the other assays
With B2, the dissociation constant (Kd) in the assay with rat PD1 protein was 2.39 nM; in the assay with monkey PD1 protein, 0.001 nM; with PD1-hFc [6], less than 0.001 nM; in assay [4], 2.7 nM. For the same molecule, the off-rate constant (koff) in the assay with rat PD1 protein is 0.000133 s⁻¹; with monkey PD1 protein, 1e-07 s⁻¹; in the assay with PD1-hFc [6], less than 1.07e-07 s⁻¹. The values for the kon with rat PD1 protein and with monkey PD1 protein were 55400 M⁻¹ s⁻¹ and 154000 M⁻¹ s⁻¹, respectively. In addition, the values for the IC50 (in assay [2]; with PD1-hFc [3]) were 49.6 nM and 3.72 nM, respectively. Further, a half-maximal response in assay [5] (EC50) required 1.88 nM. This molecule also showed a Bmax in assay [4] of 1640.
